The results in this text go back to the DeepSol protein solubility set.

This data set is described as follows: soluble on expression in E. coli; label from the status in PepcDB or PDB records.
Take “MHYCPGCSHGVVHKLIAEVIEEMGLTEETIGIAPVGCSVFAYRYIDIDWQEAAHGRAPALATAVKRLNPSKLVFTYQGDGDLAAIGTAETIHAANRGENIAIIFINNGIYGMTGGQMAPTTLEGMVTATCPQGRNVELNGYPLKIADMLALLDGTCLVTRQTVHNAAAVRKTKKMIQKAFENSMNRKGTSIVEVVSTCNTGWKMSPAASNDWMMENMAKQYPLGDLKNID”: the “soluble on expression in E. coli” value is listed as “not soluble”. Take “QILVVRNQVIFPYNGFELDVGRERSKKLIKALKNLKTKRLVLVTQKNSDQLNPEFDDIYHCGTLCDIDEIIEVPSEDGKTADYKIKGKGLQRVAITSFSDADLTKYDHHFLNSTLTENKALDKLLERIFPDKEDFAEILDSLNSFLELQELKKLSKVPKDIKRYDIITFKLASLIFKDITLQQAILEENDIEKRLQKIIGS”: the “soluble on expression in E. coli” value is “soluble”. The entry for “MHGADIKAIVFDLDGTLYEETEHFDYYAERVAKRLREADRRRFWDDYRAVLADCHPLRIGSMYDAKEDLIVWLEEGAVRKAFRWSGEPLTKREIETVYKKPVAVDLDRFFSIGDLWWVSSSIGRHYGLTNEDTYAAFLETREWMMGPEFKMNGAPGLAETLVELHEKAALVLMTNSPEPDSEAILWKLRLADVFHHKIFQAAKPMKTAAHLEAIRARFGVDYRQMLCVGDNIGNDIAPARRLGCRTMLVDTYGLAKQGVADFIVASTSACVPVLRRLL” is “not soluble”. The entry for “MVLRAKLLSWQEGVGSKTFEFDVDVEPRSYVISKVSQLSPIIASEDLTVCEGEVAVVGTRVIEIPENTVVRPVAAISHANGFVADVIECGAPGMVEDEKCINHAVFIPTRSGDVKEGDLLGMLRINFVRTGLLSRVILEHHHHHH” is “not soluble”; for “MAVSLVKGGNVSLTKEAPTMNIAVVGLGWDARVTDGSEFDLDASVFMVGENGKVLSDQHFIFFNNKVSPCGSVVHQGDNRTGAGDGDDEQIKIDLKKVPADVKKIIFSVTIYDAEARKQNFGMVSNSFMRVVNEDNSAEIARFDLSEDASTETAMIFGELYRNNDEWKFKAVGQGFAGGLSALASQHGVSV” it is “not soluble”. In the case of “MTVPDAKRLKDLELENSRLKKLLAESLLDIGALKVVTRGKGEPGSGAGGQEMQAQTDISERRACQLFRLSRSVLCHQPRTSVQNTELQAQLVELARASALWLSPPAHSAAACWCADQLQADLPAILSRRLDGEAAEAPPQGRGGVRMPEPAERTELGLVDGFRLRRAQHWATDQMPDGGR” it was “not soluble”. “MSLGNKSEAYEQYIQQIKEENGINNFFDRYPYLLKQINREVRLIEESYSLLFDRFLKDLSELRSCFNITEPLSNVEFSLGDSHSQKQTVVKIEFKGKSIYYKPKSYDSYNILLELISLLKSNNIPSFSLPESLIKADYCWQLGVDYINSNNDEVKRIYFKYGVLAAFSEIFSITDLHMENVIVSGGDLYLIDVETFFQRKLNVQTNNFEGITVDTYQRIYETSLSNGLFPVQFEKNSAPNISGISGKGGKRKKGKYELINKNRGDMKLVKTDYFQEDSYNIPTLNEKMVEPLDYANEVIAGFRECYTFLMTQRAKVKKILYGFPKLRTRAIFRNTSDYGKFLQASTNPKYLFSEKKRENLFSILYESKHIEQFIVDSEIKDLMNGDIPYFSMDPNGNVYNSLGTVIGNLGKTTSLFDNIATLNDERMKFTCELIGIVLKKPIKHWERKDGKSYYFPSISSKQSFNEEILRQREGHHHHHH”: the “soluble on expression in E. coli” value is “not soluble”. Take “MGSDKIHHHHHHMAQLVAIDNKNHLNLKVDAAKAELHGAGLHLVPAVMAEFTSMAVQYPLVITKNADTGQFVVAAMLGFESGENLFWRGGQWQGLYLPLQIRRQPFFVGNPEQNSEQKVAGDYVVCFDSESPAIVSNDGQALFSEDGVDTEYFQQAKYCLAQLLEGELANKKLLEQLQSMELLQVMQMEVTFANQQSTTLNGLYTIDTEKLAALSAEKIASLHKAGLLQAIYTLITSLGQIHHLIDLKNKQLGC”: the “soluble on expression in E. coli” value is “not soluble”. “MEQPQEEAPEVREEEEKEEVAEAEGAPELNGGPQHALPSSSYTDLSRSSSPPSLLDQLQMGCDGASCGSLNMECRVCGDKASGFHYGVHACEGCKGFFRRTIRMKLEYEKCERSCKIQKKNRNKCQYCRFQKCLALGMSHNAIRFGRMPEAEKRKLVAGLTANEGSQYNPQVADLKAFSKHIYNAYLKNFNMTKKKARSILTGKASHTAPFVIHDIETLWQAEKGLVWKQLVNGLPPYKEISVHVFYRCQCTTVETVRELTEFAKSIPSFSSLFLNDQVTLLKYGVHEAIFAMLASIVNKDGLLVANGSGFVTREFLRSLRKPFSDIIEPKFEFAVKFNALELDDSDLALFIAAIILCGGE”: the “soluble on expression in E. coli” value is reported as “soluble”.

For the sequence “MSLSMKSELRKQVLHEMKAISQEQKQAIDQALTERLLHHPFYQEAKVIATYLSFSHEFQTRELIEQALKDGKKVLIPKTYPKGRMEFVAYDPQQLVKTSFALLEPQGDVEVVDASQIDLIHVPGLAFTTKGYRIGYGGGYYDRYLEHFSGRTLSTIYPCQIQDFIPEEGHHHHHH”, the “soluble on expression in E. coli” value is listed as “not soluble”. Consider “MGSDKIHHHHHHMYNVMNCIIVDDEPLAREAMKLLIEEAECLQLVGSFNSAATASDFMEQHVVDLVFLDIQMPGITGIEFARTISKRTLVIFTTAYTEYALDSYEVDAIDYLIKPVEAERFQKAVEKAQSYHSLLLQEEKEAIETIVAAEYFFVKAERRYFKVNFSDILFVEGLKDYVILQLGEQRIITRMSLKAVFDLLPKDSFLRVNKSYIVNTAHIDSFDNNDIFIKSYEIAIGNSYRDDFFEGFVMKQQRW”, for which the “soluble on expression in E. coli” value is reported as “not soluble”. On to “MNKTYMLDTCICSFIMREQPEAVLKRLEQAVLRGQRIVVSAITYSEMRFGATGPKASPRHVELVDAFCARLDAILPWDRAAVDATTEIKVALRMAGTPIGPNDTAIAGHAIAAGAVLVTNNTREFERVPGLVLEDWVR”, for which the “soluble on expression in E. coli” value is “not soluble”. Turning to “MAWPKVQPEVNIGVVGHVDHGKTTLVQAITGIWTSKHSEELKRGMTIKLGYAETNIGVCESCKKPEAYVTEPSCKSCGSDDEPKFLRRISFIDAPGHEVLMATMLSGAALMDGAILVVAANEPFPQPQTREHFVALGIIGVKNLIIVQNKVDVVSKEEALSQYRQIKQFTKGTWAENVPIIPVSALHKINIDSLIEGIEEYIKTPYRDLSQKPVMLVIRSFDVNKPGTQFNELKGGVIGGSIIQGLFKVDQEIKVLPGLRVEKQGKVSYEPIFTKISSIRFGDEEFKEAKPGGLVAIGTYLDPSLTKADNLLGSIITLADAEVPVLWNIRIKYNLLERVVGAKEMLKVDPIRAKETLMLSVGSSTTLGIVTSVKKDEIEVELRRPVAVWSNNIRTVISRQIAGRWRMIGWGLVEI”, the “soluble on expression in E. coli” value is on record as “soluble”. The entry for “MSDKPDSQVFCPNCNERLQKCLVQQNYAIIICPSLVCGYPFNQREVLENLTYVDDNDVLKVAKKRLSSRSKP” is “soluble”; for “MVNLQEYQSKKLMSDNGVKVQRFFVADTANEALEAAKRLNAKEIVLKAQILAGGRGKGVFSSGLKGGVHLTKDPEVVGQLAKQMIGYNLATKQTPKEGVKVNKVMVAEALDISRETYLAILMDRSCNGPVLVGSPQGGVDIEEVAASNPELIFKEQIDIIEGIKDSQAQRMAENLGFLGPLQNQAADQIKKLYNLFLKIDATQVEVNPFGETPEGQVVCFDAKINFDDNAEFRQKDIFAMDDKSENEPIENEAAKYDLKYIGLDGNIACFVNGAGLAMATCDIIFLNGGKPANFLDLGGGVKESQVYQAFKLLTADPKVEAILVNIFGGIVNCAIIANGITKACRELELKVPLVVRLEGTNVHEAQNILTNSGLPITSAVDLEDAAKKAVASVTKK” it is “soluble”; for “MLPRFADIFQQGNRWLNWLEKQPEGAVRPVVIESVTKIMACGTTLMGYTNRCCSSPDCCHTKKVCFRCKSRSCPHCVVKAGAQWIQYLLSLVPYCPWQHIVFTLPCQYWSLVFHNRWLLAKMSRIAADVILEICHQADVEPGIFTVIHTWGRDQQWHPHIHLSTTAGGVTSGHTWKNLHFYARKVMSMWRYRITRLLSRKYPYLVMPDALAAEGSSKREWNRFLDTHYRRGWNVNVSRVMDNATHVAVYFGSYLKKPPVPMSRLEHYAGQDEIGLRYNSHRTKREEYLLMSGDESMERFSWHVADKGFRMVRYYVFLSPAKRRLLEEVVYIITETVRKTAMQITWRGMYQRLLKVDPLKCVLCGSQMRFTGLKRGYRLAEQVLMHEPLARMRWCG” it is “not soluble”. For “MGSDKIHHHHHHAQTPNTLTKKEKKAGWELLFNGKDFSGWRQCNGTAMPANWVIEDNAMKVFTGEGKKPGQGANGDILYQNKKFKNFELSVDWKASKMGNSGIFYYVREVPGKPIYYAAPEVQVLDNVDATDNKLANHLAGSLYDMLPADPKTVNPAGEWNTIVIRVKDGKVTHTQNGKKVVEYTLWSKEWDDLVANSKFKNFPGFTEGISKEGYIGLQDHGYPIWFRNIKIRELK”, the “soluble on expression in E. coli” value is “not soluble”. The entry for “YNVLENEELRFQLTIQKEQIEFQRNKYEQLGAAYKNIRSFMHDTKKHLFYIENCVTEKKYDDIIPYSKEIMHDLESRYCTINTGNLVIDAFVSNLLLQTKAQGITLHTNLKFDKATIPVNDYHLTIILGNLLDNALNACRGQIGANIKVAVRTVDGTFTIHVANTYVIADPDKAPDDFEKIDFIHGYGLKNVKDSAEACGGFCVIHHENDVYSATVIIPILNP” is “not soluble”.

For the sequence “MVTSEQLLFLEAWRAVDRAYVDKSFNGQSWFKLRETYLKKEPMDRRAQTYDAIRKLLAVLDDPFTRFLEPSRLAALRRGTAGSVTGVGLEITYDGGSGKDVVVLTPAPGGPAEKAGARAGDVIVTVDGTAVKGLSLYDVSDLLQGEADSQVEVVLHAPGAPSNTRTLQLTRQKVTINPVTFTTCSNVAAAALPPGAAKQQLGYVRLATFNSNTTAAAQQAFTELSKQGVAGLVLDIRNNGGGLFPAGVNVARMLVDRGDLVLIADSQGIRDIYSADGNSIDSATPLVVLVNRGTASASEVLAGALKDSKRGLIAGERTFGKGLIQTVVDLSDGSGVAVTVARYQTPAGVDINKIGVSPDVQLDPEVLPTDLEGVCRVLGSDAAPRLFG”, the “soluble on expression in E. coli” value is reported as “soluble”. Regarding “MGSDKIHHHHHHMKFPRIGLPKEKVIELINEKTKKDLTFSSGKILGSMCTMPHDLAIEVYTKYIDRNLGDPGLHPGTRKIEEEVIEMISDLLHLEKGHGHIVSGGTEANILAVRAFRNLSDVEKPELILPKSAHFSFIKAGEMLGVKLVWAELNPDYTVDVRDVEAKISDNTIGIVGIAGTTGLGVVDDIPALSDLARDYGIPLHVDAAFGGFVIPFAKELGYELPDFDFKLKGVQSITIDPHKMGMAPIPAGGIVFRRKKYLKAISVLAPYLAGGKVWQATITGTRPGASVIAVWALIKHLGFEGYMRIVERAMKLSRWFAEEIKKINNAWLVREPMLNIVSFQTKNLKKVERELKSRGWGISAHRGYIRIVFMPHVTREMIEEFLKDLKEVLS”, the “soluble on expression in E. coli” value was “not soluble”.

In the case of “MSLIGEILPLSHIVLDMEVGSKKRLFEEAGLLLERESSLSHADVFECLFAREKLGSTGLGQGVAIPHGRHAGVKQATGAFIRTREPVGFDAPDGKPVSLIFILLVPENATGEHLEVLSKLAGKFSQKSIRESLMTVSSAEEVRAILTEE”, the “soluble on expression in E. coli” value was “soluble”. With “MGSDKIHHHHHHMSQIIAIHSFRGGTGKSNIIANIGATMALKGQRVGIIDTDIQSPGIHIIFGLKEEKIRLTLNDYLWKRCDIQDTAYDVTDTLIAESGNTDKIRGSLYLIPSSIKAAEIARVLREGYDVVRLHDGFQEIIRSLKLDYLLIDTHPGLNEETLISIGIANTLLIILRPDNQDFQGTAVTVDVARKLKAARILLVLNKALASFNFTDLQQQLEQIYDVPVVGILPLAEDMVQLASKGLFCLRYPQHPITQTIQEITDQLAGLVVSHQ”, the “soluble on expression in E. coli” value is “not soluble”.
